Laboratory results published in PMC5993824 (Nature Communications, 2018).

Biological target: T1, GST-CypA (UniProt P62937 1-165)
T1 construct: cyclophilin A fused to GST; source: E. coli BL21, purified on glutathione-agarose
Assay: pull-down; GST proteins (GST, GST-CypA, GST-FKBP12) on glutathione sepharose (10 µl) added to HEK 293 T lysate (50 µl diluted to 500 µL with lysis buffer) of cells transfected with an empty (pCi) or Tat vector; 1 h at 4 °C; three washes with lysis buffer; western blots
Conditions: one partner purified

T1 sequence (P62937 whole entry, the tested form may be a part): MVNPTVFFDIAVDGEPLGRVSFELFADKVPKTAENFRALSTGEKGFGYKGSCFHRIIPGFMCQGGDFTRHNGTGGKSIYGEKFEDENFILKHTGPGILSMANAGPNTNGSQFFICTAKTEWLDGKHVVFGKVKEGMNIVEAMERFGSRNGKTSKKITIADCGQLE

B1: DHHC-20 (enzyme, human (endogenous in HEK 293 T), UniProt Q5W0Z9 1-365, looked up)
chain: MAPWTLWRCCQRVVGWVPVLFITFVVVWSYYAYVVELCVFTIFGNEENGKTVVYLVAFHLFFVMFVWSYWMTIFTSPASPSKEFYLSNSEKERYEKEFSQERQQEILRRAARALPIYTTSASKTIRYCEKCQLIKPDRAHHCSACDSCILKMDHHCPWVNNCVGFSNYKFFLLFLLYSLLYCLFVAATVLEYFIKFWTNELTDTRAKFHVLFLFFVSAMFFISVLSLFSYHCWLVGKNRTTIESFRAPTFSYGPDGNGFSLGCSKNWRQVFGDEKKYWLLPIFSSLGDGCSFPTRLVGMDPEQASVTNQNEYARSSGSNQPFPIKPLSESKNRLLDSESQWLENGAEEGIVKSGTNNHVTVAIEN
notes: S-acyl transferase DHHC-20, detected with anti-DHHC-20 (Sigma SAB 4501054); also called S-acyl transferase DHHC-20; source: endogenous, HEK 293 T lysate
B1 was tested, and the “fold more pulled down from extracts of Tat-transfected cells against empty-vector cells” value was roughly 4 fold.
